Laboratory results reported in PMC7370943.
Blank lines part the entries; values can stand above or below the substance they belong to.

Assays:
[1] = target: recombinant human IL-13 (human) (UniProt P35225)
[2] = target: T1, recombinant human IL-33 (human)
T1 sequence (O95760 whole entry, looked up): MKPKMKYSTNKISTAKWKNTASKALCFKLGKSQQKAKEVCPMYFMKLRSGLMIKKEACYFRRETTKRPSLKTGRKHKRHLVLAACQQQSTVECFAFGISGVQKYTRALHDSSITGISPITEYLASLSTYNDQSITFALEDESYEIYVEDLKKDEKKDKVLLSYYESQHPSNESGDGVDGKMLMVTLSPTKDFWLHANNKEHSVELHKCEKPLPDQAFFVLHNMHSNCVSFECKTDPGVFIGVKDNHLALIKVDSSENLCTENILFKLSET

Sequence of UniProt P35225 (P35225 25-146): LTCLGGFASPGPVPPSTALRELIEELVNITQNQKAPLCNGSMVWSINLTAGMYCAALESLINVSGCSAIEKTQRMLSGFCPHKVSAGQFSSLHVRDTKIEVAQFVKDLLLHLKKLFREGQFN

Substance: human IL-33trap with 7xGGS linker (sIL-1RAcP-7xGGS-sST2) (from UniProt Q01638 19-328) (receptor)
- IC50 of inhibition of IL-33-induced NF-κB luciferase reporter activity in HEK293T cells transfected with human ST2; IL-33 pre-incubated 30 min with the trap (blocks IL-33 acting on ST2 of the cells) [2]: 0.194 nM

Substance: human IL-33trap without Fc and GGS linker (sIL-1RAcP-sST2) (from UniProt Q01638 19-328) (receptor)
- IC50 of inhibition of IL-33-induced NF-κB luciferase reporter activity in HEK293T cells transfected with human ST2; IL-33 pre-incubated 30 min with the trap (blocks IL-33 acting on ST2 of the cells) [2]: 0.748 nM

Substance: human IL-33trap without GGS linker fused to human IgG1 Fc (sIL-1RAcP-sST2-Fc) (from UniProt Q01638 19-328) (Fc fusion)
- IC50 of inhibition of IL-33-induced NF-κB luciferase reporter activity in HEK293T cells transfected with human ST2; IL-33 pre-incubated 30 min with the trap (blocks IL-33 acting on ST2 of the cells) [2]: 0.09 nM

Second part, the substance after the results:

- IC50 of inhibition of IL-13-induced STAT6-dependent luciferase activity in HEK293T cells transfected with human IL-4Rα and IL-13Rα1; cytokine pre-incubated with the trap [1]: 0.434 nM
Substance: human IL-4/13trap (from UniProt P78552 22-343; P24394 26-232) (receptor)

- IC50 of inhibition of IL-33-induced NF-κB luciferase reporter activity in HEK293T cells transfected with human ST2; IL-33 pre-incubated 30 min with the trap (blocks IL-33 acting on ST2 of the cells) [2]: 0.067 nM
Substance: human IL-33trap with 7xGGS linker and human IgG1 Fc (from UniProt Q9NPH3 21-367; Q01638 19-328) (Fc fusion)

- IC50 of inhibition of IL-33-induced NF-κB luciferase reporter activity in HEK293T cells transfected with human ST2; IL-33 pre-incubated 30 min with the trap (blocks IL-33 acting on ST2 of the cells) [2]: 0.042 nM
Substance: human IL-33trap with 12xGGS linker (sIL-1RAcP-12xGGS-sST2) (from UniProt Q01638 19-328) (receptor)

- IC50 of inhibition of IL-33-induced NF-κB luciferase reporter activity in HEK293T cells transfected with human ST2; IL-33 pre-incubated 30 min with the trap (blocks IL-33 acting on ST2 of the cells) [2]: 0.057 nM
Substance: human IL-33trap with 12xGGS linker and human IgG1 Fc (from UniProt Q9NPH3 21-367; Q01638 19-328) (Fc fusion)
